Test results as given in patent US20220154170A1.

Biological target: clade B MN gp41 monomer (HIV-1 clade B, strain MN) (UniProt P05877)
Experiment: endpoint ELISA, plate-coated MN gp41

UniProt P05877, sequence (P05877 514-856 limits assumed): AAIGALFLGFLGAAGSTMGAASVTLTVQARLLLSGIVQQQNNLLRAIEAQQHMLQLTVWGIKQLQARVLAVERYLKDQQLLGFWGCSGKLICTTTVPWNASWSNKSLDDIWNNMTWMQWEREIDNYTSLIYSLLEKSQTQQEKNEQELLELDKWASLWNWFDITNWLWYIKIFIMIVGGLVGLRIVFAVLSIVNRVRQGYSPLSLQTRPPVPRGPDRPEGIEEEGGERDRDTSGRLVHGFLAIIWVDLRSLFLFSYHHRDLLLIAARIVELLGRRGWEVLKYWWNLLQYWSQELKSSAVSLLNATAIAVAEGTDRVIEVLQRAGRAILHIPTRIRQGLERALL

## 240-D (antibody)
  endpoint titer: 78.1 ng/mL
